A word on the Kd: it is the free concentration of one partner at which half of the binding sites on the other are occupied at equilibrium, for simple one-to-one binding.

Assay [1] has as its target T1, human TREM2 Fc fusion protein (human, UniProt Q9NZC2 19-174).
T1 construct: also called hTREM2-Fc; not shown: Fc part not specified
T1 sequence: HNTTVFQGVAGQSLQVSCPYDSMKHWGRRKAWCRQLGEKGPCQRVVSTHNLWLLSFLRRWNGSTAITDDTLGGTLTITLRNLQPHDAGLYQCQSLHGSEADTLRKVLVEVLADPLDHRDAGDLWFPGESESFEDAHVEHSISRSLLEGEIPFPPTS
Kind of assay: ForteBio or MSD-SET, avid.

Assay [2] deals with T2, mouse TREM2 Fc fusion protein (mouse, UniProt Q99NH8 19-171).
T2 construct: also called mTREM2-Fc; not shown: Fc part not specified
T2 sequence (looked up): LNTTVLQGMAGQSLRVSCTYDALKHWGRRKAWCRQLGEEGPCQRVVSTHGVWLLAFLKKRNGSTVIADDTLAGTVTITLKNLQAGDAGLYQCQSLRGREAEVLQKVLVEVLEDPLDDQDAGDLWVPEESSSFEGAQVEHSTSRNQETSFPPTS
Kind of assay: ForteBio or MSD-SET, avid. For orientation: BLI is a label-free optical method that tracks binding on a fibre tip over time.

Assay [3] deals with T3, human monomeric His tagged TREM2 protein (human, UniProt Q9NZC2 19-174).
T3 construct: also called hTREM2-HIS
T3 sequence: T1 sequence
Kind of assay: ForteBio or MSD-SET, monovalent.
Description: (§1) The binding affinity of each anti-TREM2 antibody was determined by measuring their KD by ForteBio or MSD-SET. […] Briefly, ForteBio affinity measurements were performed by loading IgGs on-line onto AHQ sensors. Sensors were equilibrated off-line in assay buffer for 30 min and then monitored on-line for 60 seconds for baseline establishment. Sensors with loaded IgGs were exposed to 100 nM antigen for 5 minutes, then transferred to assay buffer for 5 min for off-rate measurement. Kinetics were analyzed using the 1:1 binding model.
Solution equilibrium titrations (SET) were performed in PBS+0.1% IgG-Free BSA (PBSF) with antigen held constant at 50 pM and incubated with 3- to 5-fold serial dilutions of antibody starting at 10 nM. Antibodies (20 nM in PBS) were coated onto standard bind MSD-ECL plates overnight at 4° C. or at room temperature for 30 min. Plates were then blocked for 30 min with shaking at 700 rpm, followed by three washes with wash buffer (PBSF+0.05% Tween 20). SET samples were applied and incubated on the plates for 150s with shaking at 700 rpm followed by one wash. Antigen captured on a plate was detected with 250 ng/mL sulfotag-labeled streptavidin in PBSF by incubation on the plate for 3 min. The plates were washed three times with wash buffer and then read on the MSD Sector Imager 2400 instrument using 1× Read Buffer T with surfactant. […]

The target of assay [4] is T4, mouse TREM2 on cells (mouse, UniProt Q99NH8 19-227).
T4 construct: whole, on cells; Used for the recombinant protein on BWZ/BW cells (with mouse DAP12) and for the native protein on mouse macrophages and dendritic cells; the cell type stands under assay; also called mTREM2; mTrem2
T4 sequence (looked up): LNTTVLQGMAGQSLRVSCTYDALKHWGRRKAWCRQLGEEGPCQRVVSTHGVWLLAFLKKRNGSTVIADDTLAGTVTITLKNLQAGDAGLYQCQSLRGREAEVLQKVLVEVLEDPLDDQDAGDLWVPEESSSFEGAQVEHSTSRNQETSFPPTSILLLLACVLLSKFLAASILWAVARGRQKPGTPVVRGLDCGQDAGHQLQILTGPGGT
Kind of assay: FACS, mTrem2 cells. (In general: Flow cytometry measures light scatter and fluorescence of single cells or particles in a stream.)

Assay [5] deals with T1, human TREM2 Fc fusion protein. Kind of assay: ForteBio or MSD-SET, avid. The source holds these as a separate data set.
The target in assay [6] is T2, mouse TREM2 Fc fusion protein. Kind of assay: ForteBio or MSD-SET, avid. The source holds these as a separate data set.
Assay [7] deals with T3, human monomeric His tagged TREM2 protein. Kind of assay: ForteBio or MSD-SET, monovalent. The source holds these as a separate data set.
In assay [8] the target is T4, mouse TREM2 on cells. Kind of assay: FACS, BWZ T2 cells.
For assay [9], the target named is T5, human TREM2 on primary human cells (human, UniProt Q9NZC2 19-230).
T5 sequence: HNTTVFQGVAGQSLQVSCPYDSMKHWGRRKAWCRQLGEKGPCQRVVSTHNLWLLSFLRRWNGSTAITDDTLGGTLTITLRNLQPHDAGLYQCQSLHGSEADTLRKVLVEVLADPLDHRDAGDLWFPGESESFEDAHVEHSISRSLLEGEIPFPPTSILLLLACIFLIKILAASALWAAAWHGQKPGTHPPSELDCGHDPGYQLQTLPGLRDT
Kind of assay: cell-based or functional assay.

Assay [10] concerns the target T1, human TREM2 Fc fusion protein. Kind of assay: ForteBio or MSD-SET, avid. This is another data set of the same source.
Description: as §1
(§2) Solution equilibrium titrations (SET) were performed in PBS+0.1% IgG-Free BSA (PBSF) with antigen held constant at 50 pM and incubated with 3- to 5-fold serial dilutions of antibody starting at 10 nM. Antibodies (20 nM in PBS) were coated onto standard bind MSD-ECL plates overnight at 4° C. or at room temperature for 30 min. Plates were then blocked for 30 min with shaking at 700 rpm, followed by three washes with wash buffer (PBSF+0.05% Tween 20). SET samples were applied and incubated on the plates for 150s with shaking at 700 rpm followed by one wash. Antigen captured on a plate was detected with 250 ng/mL sulfotag-labeled streptavidin in PBSF by incubation on the plate for 3 min. The plates were washed three times with wash buffer and then read on the MSD Sector Imager 2400 instrument using 1×Read Buffer T with surfactant. The percent free antigen was plotted as a function of titrated antibody in Prism and fit to a quadratic equation to extract the KD. To improve throughput, liquid handling robots were used throughout MSD-SET experiments, including SET sample preparation.
For assay [11], the target named is T2, mouse TREM2 Fc fusion protein. Kind of assay: ForteBio or MSD-SET, avid. This is another data set of the same source.
Description: as §1, §2
Assay [12] deals with T4, mouse TREM2 on cells. Kind of assay: FACS, WT mouse macrophages.
Description: (§3) Cells were harvested, plated at 10⁵/ml in a 96 well plate, washed, and incubated in 100 ul PBS containing 10-50 ug/ml Mab and Fc blocking reagent for 1 hour in ice. Cells were then washed twice and incubated in 100 ul PBS containing 5 ug/ml PE-conjugated secondary antibody for 30 minutes in ice. Cells were washed twice in cold PBS and acquired on a BD FACS Canto. Data analysis and calculation of MFI values was performed with FlowJo (TreeStar) software version 10.0.7.
Assay [13] deals with T4, mouse TREM2 on cells. Kind of assay: FACS, WT mouse dendritic cells.
Description: as §3
Assay [14] has as its target T3, human monomeric His tagged TREM2 protein. Kind of assay: ForteBio or MSD-SET, monovalent. This is another data set of the same source.
Description: as §1, §2
For assay [15], the target named is T5, human TREM2 on primary human cells. Kind of assay: FACS, primary human dendritic cells.

Read-outs that look alike come from different tables or passages of the source.

B1: Ab21 (antibody, human IgG1, V domains shown)
VH: EVQLVQSGAEVKKPGESLKISCKGSGYSFTTYWIGWVRQMPGKGLEWMGIIYPGDSDTRYSPSFQGQVTISADKSISTAYLQWSSLKASDTAMYYCARAGHYDGGHLGMDVWGQGTTVTVSS
VL: EIVMTQSPGTLSLSPGERATLSCRASQSVSSSYLAWYQQKPGQAPRLLIYGASNRATGIPDRFSGSGSGTDFTLTISRLEPEDFAVYYCQQDDSAPYTFGGGTKVEIK
notes: human IgG1; also called antibody 21
In the case of B1, the Kd in [1] worked out at 0.344 nM; in [2], 0.227 nM; in assay [3], 1.14 nM.

B2: Ab52 (antibody, human IgG1, V domains shown)
VH: QVQLVQSGAEVKKPGASVKVSCKASGYTFTSYYIHWVRQAPGQGLEWMGIINPSGGSTSYAQKFQGRVTMTRDTSTSTVYMELSSLRSEDTAVYYCAREADDSSGYPLGLDVWGQGTMVTVSS
VL: EIVMTQSPATLSVSPGERATLSCRASQSVSSNLAWYQQKPGQAPRLLIYGASTRATGIPARFSGSGSGTEFTLTISSLQSEDFAVYYCQQVNSLPPTFGGGTKVEIK
notes: human IgG1; also called antibody 52
Take B2: the MFI with mouse TREM2 on cells [4] was 15600 MFI. Moreover, the Kd in [1] is 1.51 nM; in assay [2], 0.0896 nM; in [5], 1.51 nM; in [6] it was 0.0896 nM; in assay [3] it was 5.75 nM; in [7] it was 5.75 nM.

B3: Ab65 (antibody, human IgG1, V domains shown)
VH: EVQLVQSGAEVKKPGESLKISCKGSGYSFTSYWIGWVRQMPGKGLEWMGIIYPGDSDTRYSPSFQGQVTISADKSISTAYLQWSSLKASDTAMYYCARLGRKPSGSVAFDIWGQGTMVTVSS
VL: EIVLTQSPATLSLSPGERATLSCRASQSVSSYLAWYQQKPGQAPRLLIYDASNRATGIPARFSGSGSGTDFTLTISSLEPEDFAVYYCQQDYSWPYTFGGGTKVEIK
notes: human IgG1
For the molecule B3, the MFI with mouse TREM2 on cells [8] is 16100 MFI; in the assay with mouse TREM2 on cells [12], 165 MFI; in the assay with mouse TREM2 on cells [13], 642 MFI. Moreover, the “Induction of CD86 & CD83 Human hDC plate (% CD83+CD86+ cells)” value in [9] is 74%. In addition, in assay [9], the “Induction of CD86 & CD83 hDC solution (% CD83+CD86+ cells)” value was 1.7%. Moreover, the figures for the Kd in assay [10], in [11] and in assay [14] were 0.546 nM, 1.56 nM and 5.01 nM, respectively. Also, in assay [15], the hDC % positive is 76.9%.

The record behind these values is patent US20260209350A1 (Alector, published 2026).
